# Measurements from patent US8277440B2, “Implantable device for controlled, extended delivery of parathyroid hormone” (MicroCHIPS, Inc., priority 2002, dated 2012).
# Tests used:
# [1] = Solubility of PTH as a function of pH; assay type: physicochemical
# Text: While not being bound by any theory, it is believed that this phenomena was due to the salts (e.g., MW ˜60) in the PTH solution diffusing into the physiological solution at a rate that exceeded the rate of diffusion of the PTH (e.g., MW ˜4000) due, for example, to the molecular weight (MW) dependence of diffusion rate, to such an extent that the pH of the PTH solution increased to a point exceeding that required to keep the PTH in solution. (For example, at pH 3, the PTH has a solubility of about 100 μg/ml and at pH 7, the PTH has a solubility of about 20 μg/ml.)
# skeletal homeostasis = settings: cited from earlier work
substance,measurement,setting,value
parathyroid hormone [PTH],solubility,[1]; pH 3,about 100 μg/ml
same,solubility,[1]; pH 7,about 20 μg/ml
same,bone volume,skeletal homeostasis; daily dose given as one single injection,dose dependent increase
same,effect on serum calcium,skeletal homeostasis; in vivo,dose dependent increase
same,effect on serum calcium levels,skeletal homeostasis; in vivo,practically no effect
same,result on bone,skeletal homeostasis; same daily dose by continuous infusion with subcutaneous mini-osmotic pump,bone loss
